Test system: peptide library, one residue held at a place counted from the S/T acceptor
Assay: relative phosphorylation of the sub-library (ratio to the mean residue at this position); higher = residue favoured
How it was run: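 Relative sub-library phosphorylation, a ratio to the mean residue at that position, was obtained by phosphorimaging and densitometry of spots on streptavidin membranes. Before capture, purified recombinant kinases were incubated for 90 min under kinase-specific conditions with 50 μM biotinylated degenerate peptide sub-libraries and 50 μM ATP spiked with γ-32P-ATP. Each sub-library fixed one residue at one position around a central Ser/Thr.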

Chain of BMP2K, construct: aa37-345, human (Q9NSY1 37-345, looked up): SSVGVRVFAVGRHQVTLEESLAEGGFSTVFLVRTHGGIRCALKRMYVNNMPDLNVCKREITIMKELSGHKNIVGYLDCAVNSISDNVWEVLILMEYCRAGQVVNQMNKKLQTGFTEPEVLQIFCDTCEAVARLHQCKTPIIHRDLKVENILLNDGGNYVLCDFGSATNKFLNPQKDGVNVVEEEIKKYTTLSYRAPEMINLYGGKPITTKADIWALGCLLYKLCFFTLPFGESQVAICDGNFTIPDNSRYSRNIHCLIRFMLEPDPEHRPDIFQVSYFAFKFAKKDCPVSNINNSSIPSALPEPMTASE
Chain of ALPK1, construct: aa1-474 and aa959-end, human (Q96QP1 1-474, looked up): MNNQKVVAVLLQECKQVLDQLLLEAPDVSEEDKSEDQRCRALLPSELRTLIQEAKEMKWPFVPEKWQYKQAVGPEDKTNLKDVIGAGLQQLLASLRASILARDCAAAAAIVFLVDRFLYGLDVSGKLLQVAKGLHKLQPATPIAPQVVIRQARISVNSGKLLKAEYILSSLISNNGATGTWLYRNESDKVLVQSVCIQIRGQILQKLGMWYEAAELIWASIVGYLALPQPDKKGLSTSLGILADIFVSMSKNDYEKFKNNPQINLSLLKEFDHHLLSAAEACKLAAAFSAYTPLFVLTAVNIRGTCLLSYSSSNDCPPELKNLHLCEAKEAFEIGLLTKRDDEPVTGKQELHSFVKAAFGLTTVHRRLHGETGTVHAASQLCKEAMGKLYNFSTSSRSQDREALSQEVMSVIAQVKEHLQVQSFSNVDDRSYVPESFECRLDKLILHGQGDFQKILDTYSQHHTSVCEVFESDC
Chain of AURKC, construct: Full length, human (Q9UQB9 whole entry, looked up): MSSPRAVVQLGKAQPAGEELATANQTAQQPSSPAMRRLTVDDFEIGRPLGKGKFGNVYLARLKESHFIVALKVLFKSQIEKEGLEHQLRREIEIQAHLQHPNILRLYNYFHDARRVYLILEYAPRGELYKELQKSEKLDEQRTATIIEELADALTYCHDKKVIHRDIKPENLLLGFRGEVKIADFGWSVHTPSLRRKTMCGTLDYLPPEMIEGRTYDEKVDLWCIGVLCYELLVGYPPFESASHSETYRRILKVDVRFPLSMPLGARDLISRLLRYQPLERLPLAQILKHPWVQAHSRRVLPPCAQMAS

ALPK1, construct: aa1-474 and aa959-end, human (from UniProt Q96QP1)
relative phosphorylation
Details	at +1	at +2	at +3	at +4	at -1	at -2	at -3	at -4	at -5
A fixed	0.392	0.063	0.503	1.02	0.957	1.29	0.868	0.65	0.43
D fixed	0.704	0.889	1.31	1.21	2.26	1.87	2.74	2	1.61
E fixed	3.35	2.03	1.22	1.27	1.9	0.573	1.83	1.77	1.83
F fixed	0.991	1.09	1.36	1.05	0.862	0.626	0.757	1.02	0.92
G fixed	0.404	0.704	0.365	0.933	0.798	0.731	0.687	0.798	0.812
H fixed	1.15	1.07	1	1.37	0.779	0.466	1.21	1.24	0.763
I fixed	1.27	1.14	0.752	0.378	1.16	1.02	0.608	0.848	1.02
K fixed	0.774	1.49	1.08	1.09	1.13	0.599	0.905	1.31	0.94
L fixed	0.474	1.11	1.09	0.718	0.704	1.29	0.392	0.763	0.67
M fixed	1.63	1.38	1.49	0.671	0.979	1.13	0.9	0.651	1.14
N fixed	0.75	1.19	0.97	1.36	0.572	0.718	1.11	0.874	1.08
P fixed	0.39	1.01	0.781	1.16	0.805	1.54	0.952	1.02	0.971
Q fixed	1.01	0.617	0.852	0.914	0.933	1.31	0.826	0.758	1.16
R fixed	1.23	0.649	0.935	0.774	0.731	0.797	1.02	1.09	1.28
V fixed	0.557	1.08	1.06	0.914	0.569	1.09	0.694	0.547	0.996
W fixed	0.811	1.01	1.06	1.1	1.04	0.771	0.557	0.92	0.613
Y fixed	1.11	0.478	1.17	1.06	0.826	1.18	0.944	0.741	0.762
pThr fixed	0.485	1.34	1.32	1.94	1.71	1.9	2.27	1.42	1.5
pTyr fixed	1.74	1.33	1.73	2.97	9.01	0.489	1.53	1.85	1.83

AURKC, construct: Full length, human (from UniProt Q9UQB9)
relative phosphorylation
Details	at +1	at +2	at +3	at +4	at -1	at -2	at -3	at -4	at -5
A fixed	1.01	1.38	1.08	0.973	0.816	0.333	0.832	1.25	1.46
D fixed	0.814	0.611	0.589	0.957	0.459	0.179	0.421	0.58	0.651
E fixed	0.755	0.417	0.466	0.681	0.394	0.167	0.36	0.562	0.554
F fixed	1.06	0.746	0.893	0.763	0.505	0.206	0.451	0.634	0.678
G fixed	1.37	2.03	1.6	1.25	0.672	0.399	1.06	1.33	1.63
H fixed	1.06	1.66	1.43	1.1	0.974	0.399	1.1	0.955	1.06
I fixed	0.852	0.592	0.605	0.684	0.406	0.25	0.402	0.623	0.63
K fixed	0.89	0.853	1.13	1.23	2.57	2.63	2.51	2.06	2.15
L fixed	1.15	0.694	0.863	0.792	0.811	0.251	0.392	0.601	0.632
M fixed	1.57	0.705	0.719	0.803	0.727	0.248	0.52	0.741	0.664
N fixed	1.29	1.23	1.25	1.2	0.73	0.304	0.919	0.856	1.05
P fixed	0.329	1.5	1.78	1.68	1.09	0.372	1.23	1.72	1.25
Q fixed	1.16	0.975	1.03	1.35	1.09	0.529	0.803	0.96	0.767
R fixed	1	0.962	1.08	1.13	3.72	10	4.34	2.18	1.47
V fixed	0.669	0.686	0.625	0.901	0.495	0.213	0.432	0.59	0.804
W fixed	1.08	1.03	0.961	0.859	0.526	0.233	0.674	0.69	0.852
Y fixed	0.931	0.928	0.906	0.647	1.01	0.25	0.55	0.673	0.719
pThr fixed	1.1	0.657	0.676	1.06	0.334	0.342	0.612	0.86	0.713
pTyr fixed	0.648	0.502	0.631	0.801	0.398	0.209	0.52	0.629	0.535

BMP2K, construct: aa37-345, human (from UniProt Q9NSY1)
relative phosphorylation
Details	at +1	at +2	at +3	at +4	at -1	at -2	at -3	at -4	at -5
A fixed	0.537	1.05	0.882	0.9	0.668	0.84	1.54	1.11	0.639
D fixed	0.361	0.974	0.763	0.733	0.467	1.22	0.575	0.621	0.453
E fixed	0.338	0.938	0.68	0.806	0.428	0.942	0.684	0.871	0.45
F fixed	0.379	0.866	0.81	0.94	1.26	0.754	0.916	0.963	0.863
G fixed	10.2	0.959	1.4	0.987	0.76	0.579	0.812	1.04	0.565
H fixed	0.392	1.08	1.21	0.989	1.35	1	0.815	0.95	0.739
I fixed	0.351	0.716	0.716	0.769	0.852	0.713	1.26	1	1.92
K fixed	0.435	0.966	1.2	1.39	1.76	0.993	0.926	1.31	0.594
L fixed	0.349	0.699	0.841	0.801	1.17	0.96	0.901	1.15	1.39
M fixed	0.368	0.842	0.765	0.847	1.18	1.91	1.46	1.12	1.24
N fixed	0.46	1.62	1.28	1.06	0.717	1.17	0.843	0.845	0.61
P fixed	0.674	0.802	1.01	0.988	0.846	0.485	1.34	0.868	1.13
Q fixed	0.384	1.22	1.04	1.14	0.818	2.26	1.02	1.08	1.02
R fixed	0.605	1.37	1.51	1.54	1.36	1	1.03	1.29	1.55
V fixed	0.358	0.87	0.929	0.753	0.806	0.64	1.17	0.987	1.32
W fixed	0.431	1.06	0.963	1.26	0.984	0.676	0.832	0.81	0.794
Y fixed	0.414	0.964	1	1.1	1.58	0.872	0.897	0.977	1.73
pThr fixed	0.4	0.715	0.663	0.527	0.427	0.528	0.634	0.638	0.583
pTyr fixed	0.357	0.841	0.698	0.572	0.527	0.928	0.647	0.72	1.19

Reference: the supplement of paper PMC9876800
